Assay results reported in PMC6208366, “Structure and pro-toxic mechanism of the human Hsp90/PPIase/Tau complex” (Nature Communications, 2018).
Numbering of substitutions follows the chain as printed. Numbers in names are those of the source.

B1: full-length human FKBP51 (natural protein, UniProt Q13451 1-457, looked up)
chain: MTTDEGAKNNEESPTATVAEQGEDITSKKDRGVLKIVKRVGNGEETPMIGDKVYVHYKGKLSNGKKFDSSHDRNEPFVFSLGKGQVIKAWDIGVATMKKGEICHLLCKPEYAYGSAGSLPKIPSNATLFFEIELLDFKGEDLFEDGGIIRRTKRKGEGYSNPNEGATVEIHLEGRCGGRMFDCRDVAFTVGEGEDHDIPIGIDKALEKMQREEQCILYLGPRYGFGEAGKPKFGIEPNAELIYEVTLKSFEKAKESWEMDTKEKLEQAAIVKEKGTVYFKGGKYMQAVIQYGKIVSWLEMEYGLSEKESKASESFLLAAFLNLAMCYLKLREYTKAVECCDKALGLDSANEKGLYRRGEAQLLMNEFESAKGDFEKVLEVNPQNKAARLQISMCQKKAKEHNERDRRIYANMFKKFAEQDAKEEANKAMGKKTSEGVTNEKGTDSQAMEEEKPEGHV
notes: For NMR, Leu/Val or Ala/Met methyl-labelled or unlabelled; also called PPIase; source: E. coli BL21 (DE3) or Rosetta 2 (DE3), purified (Ni-NTA, HRV3C cut, SEC)
B2: CLaNP-7-tagged FKBP51 C176S/C183S/C215S/C339S/C394S/E110C (natural protein, human, UniProt Q13451 1-457, looked up)
chain: B1 chain with E110C, C176S, C183S, C215S, C339S, C394S
modifications: CLaNP-7 lanthanide tag (Tm3+ or Lu3+) attached to C107 and C110 (E110C) in FK1
notes: Human FKBP51, full length, with E110C and all cysteines other than C107 removed; also called FKBP51_(C176S/C183S/C215S/C339S/C394S/E110C)-CLaNP-7; source: E. coli, purified as the wild-type protein, tagged with CLaNP-7

How the values were obtained:
[1] = molecular target: T1, full-length human Tau (htau40, 441 residues, 2N4R) (human, UniProt P10636-8 1-441); assay: NMR titration; 1H-15N spectra of 15N-labeled Tau (30-50 μM) with up to 5 equivalents of unlabeled partner, 5 °C, 50 mM sodium phosphate/10 mM NaCl/1 mM DTT pH 6.8; conditions: both partners purified
T1 construct: 15N-labelled for the NMR titrations; also called 2N4R Tau; source: E. coli BL21 (DE3), vector pNG2, purified (boiling, SP-Sepharose)
T1 sequence (P10636 other isoform, or with tags, fused parts or gaps): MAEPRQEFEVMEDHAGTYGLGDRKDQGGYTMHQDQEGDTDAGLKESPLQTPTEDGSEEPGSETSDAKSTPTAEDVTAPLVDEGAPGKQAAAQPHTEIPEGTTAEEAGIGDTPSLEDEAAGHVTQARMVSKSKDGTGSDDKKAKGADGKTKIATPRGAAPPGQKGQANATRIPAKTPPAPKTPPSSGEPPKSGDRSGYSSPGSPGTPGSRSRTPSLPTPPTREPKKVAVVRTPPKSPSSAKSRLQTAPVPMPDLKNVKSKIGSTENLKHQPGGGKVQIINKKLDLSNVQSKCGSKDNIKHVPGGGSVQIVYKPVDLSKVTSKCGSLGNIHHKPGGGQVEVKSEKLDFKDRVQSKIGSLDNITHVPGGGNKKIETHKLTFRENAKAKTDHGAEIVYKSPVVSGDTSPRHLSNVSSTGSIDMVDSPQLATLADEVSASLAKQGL

human full-length Hsp90β = molecular target: T2, human full-length Hsp90β (human, UniProt P08238 1-724); assay: paramagnetic NMR (pseudo-contact shifts); 80 μM Ile-labelled Hsp90 with 40 μM CLaNP-7-tagged FKBP51 mutant (Tm3+ against Lu3+), 25 °C, 50 mM sodium phosphate/300 mM NaCl pH 7.2 in D2O; conditions: both partners purified
T2 construct: Human Hsp90β (heat-shock protein 90 beta), full length, dimer; For NMR, Ile δ1 methyl-labelled in a deuterated background or unlabelled; nothing is said for Hsp90; also called heat-shock protein 90; Hsp90 dimer; source: E. coli BL21 (DE3) or Rosetta 2 (DE3), purified (Ni-NTA, SEC)
T2 sequence (P08238 whole entry): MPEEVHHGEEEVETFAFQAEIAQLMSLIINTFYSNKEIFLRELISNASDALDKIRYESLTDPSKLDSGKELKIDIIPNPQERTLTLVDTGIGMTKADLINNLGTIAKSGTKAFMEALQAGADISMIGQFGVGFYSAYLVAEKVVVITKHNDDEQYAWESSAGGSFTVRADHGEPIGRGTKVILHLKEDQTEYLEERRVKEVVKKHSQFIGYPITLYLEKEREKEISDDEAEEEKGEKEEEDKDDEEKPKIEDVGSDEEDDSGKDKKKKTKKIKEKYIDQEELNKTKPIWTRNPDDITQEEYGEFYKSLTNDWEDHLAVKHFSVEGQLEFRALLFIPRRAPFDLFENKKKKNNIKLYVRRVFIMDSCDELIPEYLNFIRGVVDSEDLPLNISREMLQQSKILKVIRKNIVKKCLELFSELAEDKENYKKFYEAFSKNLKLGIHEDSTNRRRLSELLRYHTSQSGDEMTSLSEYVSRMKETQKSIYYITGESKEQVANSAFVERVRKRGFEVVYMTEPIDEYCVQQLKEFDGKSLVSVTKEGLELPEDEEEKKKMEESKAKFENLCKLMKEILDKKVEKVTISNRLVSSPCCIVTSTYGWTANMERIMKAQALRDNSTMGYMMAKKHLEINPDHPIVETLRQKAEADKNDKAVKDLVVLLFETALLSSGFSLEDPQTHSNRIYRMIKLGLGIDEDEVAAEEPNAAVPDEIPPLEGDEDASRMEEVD

Binder	binding result [1]	binding result (human full-length Hsp90β)
B1	binds	
B2		binds
